A word on the stoichiometry N: it is the number of molecules, sites or subunits per partner or assembly.

Several values for one entry are separate records, joined by “and”; a condition that tells them apart may be missing. Identical values can stand only once.

The source of these data is publication doi:10.1101/2025.09.04.674342, “Tandem association of CLOCK:BMAL1 complexes on DNA enables recruitment of CBP/p300 through multivalent interactions” (bioRxiv, 2025).

Assay [1] concerns the target BMAL1 TAD L606A/L607A (residues 579–626) (mouse) (UniProt Q9WTL8). Kind of assay: NMR titration; 15N-1H HSQC of 100 μM 15N BMAL1 TAD WT or L606A/L607A with stepwise additions of CBP KIX (WT or 3mut), TAZ1 or TAZ2; 25°C; 10 mM MES pH 6.5, 50 mM NaCl, 10% D2O; KD from fits of concentration-dependent CSPs, apparent.
Assay [2] addresses BMAL1 TAD (residues 579–626) (mouse) (UniProt Q9WTL8). The assay is described as above.
The target of assay [3] is human histone octamer in the nucleosome core particle (Widom 601 DNA with tandem E-boxes) (human) (UniProt P04908). The assay can be described thus: mass photometry; NCP tandem 6bp 10 nM with CLOCK:BMAL1 bHLH-PAS-AB 60 nM (1:6), 30 min at room temperature; 20 mM Tris-HCl pH 7.5, 100 mM KCl, 0.5 mM TCEP.

Chain of BMAL1 TAD L606A/L607A (residues 579–626) (mouse) (Q9WTL8 585-632 L612A/L613A): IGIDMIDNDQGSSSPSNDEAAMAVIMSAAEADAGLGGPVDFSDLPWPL
Chain of BMAL1 TAD (residues 579–626) (mouse) (Q9WTL8 585-632): as the sequence (Q9WTL8 585-632 L612A/L613A) above, with A28L, A29L counted along it

With “CBP KIX domain (residues 586–672) (from UniProt P45481 586-672) (domain or fragment)”, in assay [1], the Kd was 190 µM. In the case of “CBP KIX Y650A/A654Q/Y658A (3mut) (from UniProt P45481 586-672) (domain or fragment)”, in assay [2], the Kd amounted to 160 µM. Turning to “CLOCK:BMAL1 bHLH-PAS-AB heterodimer (from UniProt O08785 26-395; Q9WTL8-4 62-441) (complex)”, the stoichiometry N in assay [3] was 2 and 3.
